Measurements taken from paper PMC3728347.
Blank lines part the entries; values can stand above or below the substance they belong to.

Experiments:
[1] = target: Glycine N-methyltransferase, wild type (UniProt Q14749); test: SEC; size-exclusion chromatography of wild type GNMT and catalytic-centre mutants; data not shown
GNMT L210S mutant = GNMT L210S mutant (UniProt Q14749); test: SEC; size-exclusion chromatography on Sephacryl S300 of the folate-site mutants
GNMT M218D mutant = GNMT M218D mutant (UniProt Q14749); test: as above
GNMT Y244A mutant = GNMT Y244A mutant (UniProt Q14749); test: SEC; size-exclusion chromatography of wild type GNMT and catalytic-centre mutants; data not shown
GNMT D70A mutant = GNMT D70A mutant (UniProt Q14749); test: as above
GNMT Y6E mutant = GNMT Y6E mutant (UniProt Q14749); test: SEC; size-exclusion chromatography on Sephacryl S300 of the folate-site mutants
GNMT W30F mutant = GNMT W30F mutant (UniProt Q14749); test: SEC; size-exclusion chromatography of wild type GNMT and catalytic-centre mutants; data not shown

Substance: Glycine N-methyltransferase, wild type (from UniProt Q14749 1-295) (enzyme)
- stoichiometry N [1]: 4

Substance: GNMT L210S mutant (from UniProt Q14749 1-295) (enzyme)
- percent of the protein as dimer (GNMT L210S mutant): 50%
- percent of the protein as monomer (GNMT L210S mutant): 10%
- percent of the protein as tetramer (GNMT L210S mutant): 40%

Substance: GNMT M218D mutant (from UniProt Q14749 1-295) (enzyme)
- stoichiometry N (GNMT M218D mutant): 4

Substance: GNMT D70A mutant (from UniProt Q14749 1-295) (enzyme)
- stoichiometry N (GNMT D70A mutant): 4

Next, values leading:

- stoichiometry N (GNMT Y244A mutant): 4
Substance: GNMT Y244A mutant (from UniProt Q14749 1-295) (enzyme)

- stoichiometry N (GNMT Y6E mutant): 4
Substance: GNMT Y6E mutant (from UniProt Q14749 1-295) (enzyme)

- stoichiometry N (GNMT W30F mutant): 4
Substance: GNMT W30F mutant (from UniProt Q14749 1-295) (enzyme)
